From the supplement of paper PMC9732359
± gives the uncertainty stated by the source.

Assay: protein stability index of a GFP-peptide fusion (yeast GPS) (PSI 1-4); higher = more stable; sorted into four equal gates, so the index is relative within each strain
In short: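 Tiled 17-residue yeast protein peptides were fused downstream of GFP in a plasmid that also expresses Cherry, and the pooled library was carried in yeast. Mid-log cultures in leucine-free medium were sorted into four equal gates by GFP/Cherry fluorescence ratio, and plasmids from each gate were PCR-amplified and Illumina-sequenced, with reads assigned to strains by barcodes. The protein stability index for each peptide was each gate's read frequency times its gate number, summed.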

Row | Sequence | protein stability index (doa10∆) | protein stability index (pdr5∆) | protein stability index (san1∆) | protein stability index (ubr1∆)
1 | KLSIAEERDRRRAQQGL [RPS4A] | 2.11 ± 0.06 | 2.19 ± 0.069 | 2.49 ± 0.095 | 1.6 ± 0.063
2 | KLSNIWMQRQLIKGDAG [SRB2] | 2.93 ± 0.23 | 1.16 ± 0.14 |  | 1.25 ± 0.26
3 | KLTRELEKKFQDRHVIF [RPS7A] | 3.08 ± 0.14 | 3.5 ± 0.18 | 3.09 ± 0.086 | 3.18 ± 0.1
4 | KLYKKIAKFERSEEEVT [YIL149C/MLP2] | 3.25 ± 0.1 | 3.19 ± 0.078 | 3.17 ± 0.064 | 3.3 ± 0.078
5 | KLYTFLARRTDAPFNKV [RPL18A] | 1.78 ± 0.052 | 1.65 ± 0.042 | 1.97 ± 0.079 | 1.89 ± 0.068
6 | KMIEKIEKMSTIVQLCK [YIL149C/MLP2] | 2.65 ± 0.092 | 2.37 ± 0.067 | 1.98 ± 0.17 | 2.36 ± 0.098
7 | KMSDGFNGADIRNCATE [RPT4] | 3.43 ± 0.074 | 3.47 ± 0.059 | 3.35 ± 0.041 | 3.3 ± 0.043
8 | KMYDYEEKEESNLAATK [RPN11] | 3.17 ± 0.074 | 3.06 ± 0.082 | 2.87 ± 0.056 | 2.96 ± 0.1
9 | KMYSDDTLKDISTSFCF [BRN1] | 3.36 ± 0.086 | 3.33 ± 0.067 | 3.42 ± 0.039 | 3.22 ± 0.067
10 | KNAVVRSKFGGDFLDFQ [ARP7] | 3 ± 0.13 | 2.57 ± 0.12 | 3.31 ± 0.094 | 3.21 ± 0.083
11 | KNFDMLNSMEKDRISHE [PCI8] | 2.33 ± 0.069 | 2.31 ± 0.076 | 2.35 ± 0.08 | 2.4 ± 0.043
12 | KNGLYQEAFKIYQHLAS [SRP72] | 1.81 ± 0.061 | 2.14 ± 0.11 | 2.33 ± 0.23 | 2.77 ± 0.091
13 | KNPKFSNAFYSVLRDTL [SMC4] | 2.1 ± 0.084 | 2.34 ± 0.11 | 2.13 ± 0.093 | 2.13 ± 0.11
14 | KNRRRIHGELKTYKEGI [SMC1] | 3.23 ± 0.13 | 3.35 ± 0.062 | 3.17 ± 0.095 | 3.18 ± 0.054
15 | KNTSSMDFLNSMENTPK [GAL11] | 1.83 ± 0.059 | 1.67 ± 0.06 | 2.33 ± 0.12 | 3.02 ± 0.047
16 | KNVGNKSPEQCILRFLQ [SWI3] | 2.15 ± 0.062 | 2.67 ± 0.051 | 2.31 ± 0.083 | 1.84 ± 0.033
17 | KNVLANSIWGSSLRKNA [ITC1] | 1.49 ± 0.057 | 1.89 ± 0.05 | 1.82 ± 0.13 | 1.45 ± 0.042
18 | KNWQNVGSLVVKSSMGP [RPL1A] | 2.1 ± 0.046 | 2.39 ± 0.051 | 2.7 ± 0.064 | 2.29 ± 0.045
19 | KPAFSFGATTNDDKKTE [YJL041W/NSP1] | 2.92 ± 0.099 | 3.07 ± 0.067 | 3.01 ± 0.058 | 2.89 ± 0.045
20 | KPFLKKTQEYYTQYTND [CDC53] | 3.02 ± 0.061 | 3.12 ± 0.053 | 3.07 ± 0.044 | 3.01 ± 0.046

Row | Sequence | protein stability index (doa10∆) | protein stability index (pdr5∆) | protein stability index (san1∆) | protein stability index (ubr1∆)
21 | KPGRMPFNFTVTLFQMA [CDC53] | 1.65 ± 0.039 | 1.99 ± 0.043 | 2.17 ± 0.08 | 2.05 ± 0.051
22 | KPMAFSNTTTHVPEKKS [MTR3] | 1.46 ± 0.053 | 2.04 ± 0.052 | 2.32 ± 0.082 | 1.62 ± 0.034
23 | KPPTQKTDTKVSFRTHN [SRP21] | 2.52 ± 0.078 | 2.82 ± 0.072 | 2.57 ± 0.07 | 2.7 ± 0.065
24 | KPQEIKDILVKTGITKK [PRE9] | 3.39 ± 0.089 | 3.29 ± 0.086 | 2.56 ± 0.22 | 3.15 ± 0.14
25 | KPQRTNTLRMKHGTYDK [RPB2] | 2.74 ± 0.081 | 2.85 ± 0.061 | 2.84 ± 0.062 | 2.88 ± 0.044
26 | KPSSPPDVKSLVQLSTM [SIR4] | 3.41 ± 0.11 | 3.26 ± 0.07 | 3.12 ± 0.088 | 3.26 ± 0.06
27 | KPYKQVKQIAPAELEGL [FAS2] | 2.36 ± 0.061 | 2.14 ± 0.055 | 2.47 ± 0.083 | 1.9 ± 0.053
28 | KQEIMMSDLFTFDWFIK [ISW2] | 2.85 ± 0.075 | 2.6 ± 0.055 | 2.46 ± 0.07 | 2.9 ± 0.047
29 | KQEQEEKIKSKKINRRN [YCG1] | 3.4 ± 0.18 | 2.87 ± 0.17 | 2.75 ± 0.29 | 3.22 ± 0.15
30 | KQERLKENEESLTPTQS [PRP28] | 3.13 ± 0.092 | 3.4 ± 0.07 | 3.22 ± 0.12 | 3.15 ± 0.074
31 | KQINHQGEEEELIALNL [RPB4] | 3.34 ± 0.15 | 3.59 ± 0.13 | 3.2 ± 0.076 | 3.42 ± 0.11
32 | KQLQLAMHNSKAASSTR [POP1] | 1.96 ± 0.057 | 2.17 ± 0.071 | 1.54 ± 0.11 | 1.74 ± 0.037
33 | KQNSSSDINQNDDSSSM [YDL088C/ASM4] | 3.1 ± 0.17 | 2.94 ± 0.08 | 2.58 ± 0.088 | 2.69 ± 0.058
34 | KQRTKKEDKSEAIDGNG [SNF2] | 3.55 ± 0.13 | 3.36 ± 0.075 | 3.17 ± 0.073 | 3.19 ± 0.072
35 | KQTADWLAEKFQKETNM [PRP28] | 2.57 ± 0.2 | 3.12 ± 0.14 | 3.43 ± 0.091 | 3.16 ± 0.21
36 | KQTKLRKEKEKKPGKIA [SMB1] |  | 3.36 ± 0.15 | 2.51 ± 0.29 | 
37 | KRADISKRRITEELSIT [SMC1] | 1.46 ± 0.086 | 1.73 ± 0.078 | 1.72 ± 0.12 | 1.83 ± 0.08
38 | KRDAKAAGSYYVEAQHK [RPL7A] | 3.21 ± 0.086 | 3.19 ± 0.046 | 3.22 ± 0.042 | 2.91 ± 0.054
39 | KRINKFLDSVHKQGSSY [POP7] | 2.61 ± 0.04 | 2.52 ± 0.033 | 2.65 ± 0.045 | 2.37 ± 0.031
40 | KRKLDIGKDTFVTRKSR [PRP8] | 2.93 ± 0.079 | 3.05 ± 0.057 | 2.91 ± 0.068 | 3.24 ± 0.043
